In US20030100049:

Target: Crosstide substrate peptide (UBI)

B1: MyrAkt3HA (full length human Akt3 fused to the myristylation signal from human Src at the N-terminus and to an HA-tag at the C-terminus) (protein)
chain: MGSNKSKPKDASQRRRSSDVTIVKEGWVQKRGEYIKNWRPRYFLLKTDGSFIGYKEKPQDVDLPYPLNNFSVAKCQLMKTERPKPNTFIIRCLQWTTVIERTFHVDTPEEREEWTEAIQAVADRLQRQEEERMNCSPTSQIDNIGEEEMDASTTHHKRKTMNDFDYLKLLGKGTFGKVILVREKASGKYYAMKILKKEVIIAKDEVAHTLTESRVLKNTRHPFLTSLKYSFQTKDRLCFVMEYVNGGELFFHLSRERVFSEDRTRFYGAEIVSALDYLHSGKIVYRDLKLENLMLDKDGHIKITDFGLCKEGITDAATMKTFCGTPEYLAPEVLEDNDYGRAVDWWGLGVVMYEMMCGRLPFYNQDHEKLFELILMEDIKFPRTLSSDAKSLLSGLLIKDPNKRLGGGPDDAKEIMRHSFFSGVNWQDVYDKKLVPPFKPQVTSETDTRYFDEEFTAQTITITPPEKCQQSDCGMLGNWKK
Kinase activity of anti-HA immunopellets (32P incorporation into substrate peptide, scintillation counting): Kinase activity present in CMV6[MyrAkt3HA] transfected samples was 20 times higher than that present in cells transfected with the control vector CMV6
